Common to all, as to assay: purified protein
Common to all, as to format: biochemical, Botrytis aclada

Data set [1] relates to CCn1c(=NN=c2sc3cc(S(=O)(=O)O)ccc3n2CC)sc2cc(S(=O)(=O)O)ccc21. The note with it: pH 4.0, 100 mM citrate-phosphate, 30 °C, air-saturated, µ and ± signs lost in the table text (header reads M), apparent Km, also measured at pH 3, 5, 6.
Another data set has as its system COc1cccc(OC)c1O. The following applies: pH 4.0, 100 mM citrate-phosphate, 30 °C, air-saturated, µ and ± signs lost in the table text (header reads M), apparent Km, also measured at pH 3, 5, 6.
Substrate in data set [2]: COc1cccc(OC)c1O
The following applies: pH 4.0, 100 mM citrate-phosphate, 30 °C, air-saturated, apparent Km, also measured at pH 3, 5, 6.

Substrate in data set [3]: CCn1c(=NN=c2sc3cc(S(=O)(=O)O)ccc3n2CC)sc2cc(S(=O)(=O)O)ccc21
The following applies: pH 4.0, 100 mM citrate-phosphate, 30 °C, air-saturated, µ and ± signs lost in the table text (header reads M), apparent Km, also measured at pH 3, 5, 6. The source holds these as a separate data set.

Consider “BaL (Botrytis aclada laccase) (Botrytis aclada; L536M)”, for which the values for the Km (in data set [1]; in the data set on COc1cccc(OC)c1O) were 19.3 ± 1.0 µM and 80.8 ± 2.7 µM, respectively.

B1: BaL (Botrytis aclada laccase) (Botrytis aclada) (protein)
chain: SCANSATSRSCWGEYSIDTNWYDVTPTGVTREYWLSVENSTITPDGYTRSAMTFNGTVPGPAIIADWGDNLIIHVTNNLEHNGTSIHWHGIRQLGSLEYDGVPGVTQCPIAPGDTLTYKFQVTQYGTTWYHSHFSLQYGDGLFGPLIINGPATADYDEDVGVIFLQDWAHESVFEIWDTARLGAPPALENTLMNGTNTFDCSASTDPNCVGGGKKFELTFVEGTKYRLRLINVGIDSHFEFAIDNHTLTVIANDLVPIVPYTTDTLLIGIGQRYDVIVEANAAADNYWIRGNWGTTCSTNNEAANATGILRYDSSSIANPTSVGTTPRGTCEDEPVASLVPHLALDVGGYSLVDEQVSSAFTNYFTWTINSSSLLLDWSSPTTLKIFNNETIFPTEYNVVALEQTNANEEWVVYVIEDLTGFGIWHPIHLHGHDFFIVAQETDVFNSDESPAKFNLVNPPRRDVAALPGNGYLAIAFKLDNPGSWLLHCHIAWHASEGLAMQFVESQSSIAVKMTDTAIFEDTCANWNAYTPTQLFAEDDSGI
notes: full-length cDNA expressed in secreted form in Pichia pastoris X33; 543 residues; kinetics on glycosylated enzyme
For B1, the Km in the data set “purified protein [2]” was found to be 8.3 ± 0.7 µM; in the data set “purified protein [3]”, 14.0 ± 1.0 µM.

For orientation: Km means the substrate concentration at which the rate is half of its maximum.

The record behind these values is article PMC4220974, “Effect of the L499M mutation of the ascomycetous Botrytis aclada laccase on redox potential and catalytic properties” (Acta Crystallographica Section D: Biological Crystallography, 2014).
